# T1: EsCas13d, nuclease-dead (Eubacterium siraeum, UniProt B0MS50, R295A;H300A;R849A;H854A)
# T1 sequence: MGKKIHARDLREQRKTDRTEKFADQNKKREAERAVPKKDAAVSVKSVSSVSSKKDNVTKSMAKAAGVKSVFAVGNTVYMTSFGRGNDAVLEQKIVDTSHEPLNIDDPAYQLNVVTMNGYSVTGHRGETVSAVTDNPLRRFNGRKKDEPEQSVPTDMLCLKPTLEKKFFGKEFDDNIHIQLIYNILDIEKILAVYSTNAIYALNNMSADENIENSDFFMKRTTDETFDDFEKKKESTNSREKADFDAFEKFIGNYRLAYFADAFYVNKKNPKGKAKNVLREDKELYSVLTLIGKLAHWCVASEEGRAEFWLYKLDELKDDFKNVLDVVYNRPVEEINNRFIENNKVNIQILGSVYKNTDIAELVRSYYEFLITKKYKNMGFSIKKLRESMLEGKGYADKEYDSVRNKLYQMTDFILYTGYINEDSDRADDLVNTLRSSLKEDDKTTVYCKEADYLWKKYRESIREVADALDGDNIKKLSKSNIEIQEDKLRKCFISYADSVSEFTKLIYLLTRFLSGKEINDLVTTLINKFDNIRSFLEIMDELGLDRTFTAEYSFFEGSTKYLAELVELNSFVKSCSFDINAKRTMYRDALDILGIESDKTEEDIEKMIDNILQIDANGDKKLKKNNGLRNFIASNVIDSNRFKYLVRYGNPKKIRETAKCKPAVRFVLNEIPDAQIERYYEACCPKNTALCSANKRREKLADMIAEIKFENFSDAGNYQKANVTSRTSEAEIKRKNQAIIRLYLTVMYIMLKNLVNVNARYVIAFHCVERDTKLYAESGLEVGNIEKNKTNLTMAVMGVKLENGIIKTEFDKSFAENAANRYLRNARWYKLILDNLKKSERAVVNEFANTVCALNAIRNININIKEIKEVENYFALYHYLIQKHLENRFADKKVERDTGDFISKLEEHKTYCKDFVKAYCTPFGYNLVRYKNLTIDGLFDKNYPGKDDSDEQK
# Biological target: T1, EsCas13d, nuclease-dead
# Assay: crRNA (strand 1, pre-loaded); Mg2+; 40 mM Tris-HCl pH 7.5, 150 mM NaCl, 6 mM MgCl2, 1 mM DTT, 0.1% Tween-20, 0.2 mg/ml BSA; 25 C; 10 min per concentration, then washed
# Settings: tags: His6-TwinStrep-SUMO cleaved; N-terminal SNAP kept (SNAP-Surface 488); label: 3' end held by stalled T7 RNA polymerase
row,Binder,Kd [µM]
1,"target 1 A16C,U19C (mixed) RNA 1: CACCCGUGCAAAAAUGCAGGGGUCUAAAACUGAGCGGAUAACCUCUCUAUGG RNA 2: GGGAAUGGAUCCACAUCUACGAAUUCGUACCACAGCGAGGUUAUCCGCUCACCGAGAUCGGAAGAGCACACGU",0.094 ± 0.021
2,"target 1 insC 3' of 17,insU 3' of 16 (mixed) RNA 1: CACCCGUGCAAAAAUGCAGGGGUCUAAAACUGAGCGGAUAACCUCUCUAUGG RNA 2: GGGAAUGGAUCCACAUCUACGAAUUCGUACCAUAGCAUGAGGUUAUCCGCUCACCGAGAUCGGAAGAGCACACGU",0.04 ± 0.006
3,"target 1 C6G,U10G (mixed) RNA 1: CACCCGUGCAAAAAUGCAGGGGUCUAAAACUGAGCGGAUAACCUCUCUAUGG RNA 2: GGGAAUGGAUCCACAUCUACGAAUUCGUACCAUAGAGAGGUGAUCGGCUCACCGAGAUCGGAAGAGCACACGU",0.0152 ± 0.0009
4,target 1 A1G (mixed) RNA 1: CACCCGUGCAAAAAUGCAGGGGUCUAAAACUGAGCGGAUAACCUCUCUAUGG RNA 2: GGGAAUGGAUCCACAUCUACGAAUUCGUACCAUAGAGAGGUUAUCCGCUCGCCGAGAUCGGAAGAGCACACGU,0.0086 ± 0.0007
5,"target 1 insA 3' of 19,insG 3' of 9 (mixed) RNA 1: CACCCGUGCAAAAAUGCAGGGGUCUAAAACUGAGCGGAUAACCUCUCUAUGG RNA 2: GGGAAUGGAUCCACAUCUACGAAUUCGUACCAUAAGAGAGGUUAGUCCGCUCACCGAGAUCGGAAGAGCACACGU",0.037 ± 0.004
6,target 1 MT (mixed) RNA 1: CACCCGUGCAAAAAUGCAGGGGUCUAAAACUGAGCGGAUAACCUCUCUAUGG RNA 2: GGGAAUGGAUCCACAUCUACGAAUUCGUACCAUAGAGAGGUUAUCCGCUCACCGAGAUCGGAAGAGCACACGU,0.00862 ± 6e-05
7,"target 1 insA 3' of 10,insU 3' of 9 (mixed) RNA 1: CACCCGUGCAAAAAUGCAGGGGUCUAAAACUGAGCGGAUAACCUCUCUAUGG RNA 2: GGGAAUGGAUCCACAUCUACGAAUUCGUACCAUAGAGAGGUUAAUUCCGCUCACCGAGAUCGGAAGAGCACACGU",0.0139 ± 0.0005
8,"target 1 C6A,A18C (mixed) RNA 1: CACCCGUGCAAAAAUGCAGGGGUCUAAAACUGAGCGGAUAACCUCUCUAUGG RNA 2: GGGAAUGGAUCCACAUCUACGAAUUCGUACCAUCGAGAGGUUAUCAGCUCACCGAGAUCGGAAGAGCACACGU",0.054 ± 0.004
9,"target 1 insU 3' of 13,insG 3' of 1 (mixed) RNA 1: CACCCGUGCAAAAAUGCAGGGGUCUAAAACUGAGCGGAUAACCUCUCUAUGG RNA 2: GGGAAUGGAUCCACAUCUACGAAUUCGUACCAUAGAGAGUGUUAUCCGCUCAGCCGAGAUCGGAAGAGCACACGU",0.0117 ± 0.0017
10,"target 1 insC 3' of 13,insG 3' of 7 (mixed) RNA 1: CACCCGUGCAAAAAUGCAGGGGUCUAAAACUGAGCGGAUAACCUCUCUAUGG RNA 2: GGGAAUGGAUCCACAUCUACGAAUUCGUACCAUAGAGAGCGUUAUCGCGCUCACCGAGAUCGGAAGAGCACACGU",0.0161 ± 0.001
11,"target 1 insC 3' of 10,insG 3' of 4 (mixed) RNA 1: CACCCGUGCAAAAAUGCAGGGGUCUAAAACUGAGCGGAUAACCUCUCUAUGG RNA 2: GGGAAUGGAUCCACAUCUACGAAUUCGUACCAUAGAGAGGUUCAUCCGCGUCACCGAGAUCGGAAGAGCACACGU",0.0086 ± 0.0004
12,"target 1 insC 3' of 11,insA 3' of 10 (mixed) RNA 1: CACCCGUGCAAAAAUGCAGGGGUCUAAAACUGAGCGGAUAACCUCUCUAUGG RNA 2: GGGAAUGGAUCCACAUCUACGAAUUCGUACCAUAGAGAGGUCUAAUCCGCUCACCGAGAUCGGAAGAGCACACGU",0.03 ± 0.004
13,"target 1 insC 3' of 18,insC 3' of 9 (mixed) RNA 1: CACCCGUGCAAAAAUGCAGGGGUCUAAAACUGAGCGGAUAACCUCUCUAUGG RNA 2: GGGAAUGGAUCCACAUCUACGAAUUCGUACCAUACGAGAGGUUACUCCGCUCACCGAGAUCGGAAGAGCACACGU",0.058 ± 0.008
14,"target 1 U8G,A16G (mixed) RNA 1: CACCCGUGCAAAAAUGCAGGGGUCUAAAACUGAGCGGAUAACCUCUCUAUGG RNA 2: GGGAAUGGAUCCACAUCUACGAAUUCGUACCAUAGGGAGGUUAGCCGCUCACCGAGAUCGGAAGAGCACACGU",0.0394 ± 0.0035
15,target 1 A1U (mixed) RNA 1: CACCCGUGCAAAAAUGCAGGGGUCUAAAACUGAGCGGAUAACCUCUCUAUGG RNA 2: GGGAAUGGAUCCACAUCUACGAAUUCGUACCAUAGAGAGGUUAUCCGCUCUCCGAGAUCGGAAGAGCACACGU,0.0085 ± 0.0006
16,"target 1 U10A,C22G (mixed) RNA 1: CACCCGUGCAAAAAUGCAGGGGUCUAAAACUGAGCGGAUAACCUCUCUAUGG RNA 2: GGGAAUGGAUCCACAUCUACGAAUUCGUAGCAUAGAGAGGUAAUCCGCUCACCGAGAUCGGAAGAGCACACGU",0.076 ± 0.025
17,"target 1 U11A,C21A (mixed) RNA 1: CACCCGUGCAAAAAUGCAGGGGUCUAAAACUGAGCGGAUAACCUCUCUAUGG RNA 2: GGGAAUGGAUCCACAUCUACGAAUUCGUACAAUAGAGAGGAUAUCCGCUCACCGAGAUCGGAAGAGCACACGU",0.064 ± 0.024
18,"target 1 insU 3' of 13,insC 3' of 1 (mixed) RNA 1: CACCCGUGCAAAAAUGCAGGGGUCUAAAACUGAGCGGAUAACCUCUCUAUGG RNA 2: GGGAAUGGAUCCACAUCUACGAAUUCGUACCAUAGAGAGUGUUAUCCGCUCACCCGAGAUCGGAAGAGCACACGU",0.021 ± 0.004
19,"target 1 insA 3' of 22,insG 3' of 10 (mixed) RNA 1: CACCCGUGCAAAAAUGCAGGGGUCUAAAACUGAGCGGAUAACCUCUCUAUGG RNA 2: GGGAAUGGAUCCACAUCUACGAAUUCGUACACAUAGAGAGGUUGAUCCGCUCACCGAGAUCGGAAGAGCACACGU",0.055 ± 0.013
20,"target 1 U11C,C22U (mixed) RNA 1: CACCCGUGCAAAAAUGCAGGGGUCUAAAACUGAGCGGAUAACCUCUCUAUGG RNA 2: GGGAAUGGAUCCACAUCUACGAAUUCGUAUCAUAGAGAGGCUAUCCGCUCACCGAGAUCGGAAGAGCACACGU",0.0212 ± 0.0017
21,"target 1 insA 3' of 15,insU 3' of 13 (mixed) RNA 1: CACCCGUGCAAAAAUGCAGGGGUCUAAAACUGAGCGGAUAACCUCUCUAUGG RNA 2: GGGAAUGGAUCCACAUCUACGAAUUCGUACCAUAGAGAAGUGUUAUCCGCUCACCGAGAUCGGAAGAGCACACGU",0.019 ± 0.004
22,"target 1 insC 3' of 15,insA 3' of 8 (mixed) RNA 1: CACCCGUGCAAAAAUGCAGGGGUCUAAAACUGAGCGGAUAACCUCUCUAUGG RNA 2: GGGAAUGGAUCCACAUCUACGAAUUCGUACCAUAGAGCAGGUUAUACCGCUCACCGAGAUCGGAAGAGCACACGU",0.0201 ± 0.0021
23,"target 1 A1G,U19C (mixed) RNA 1: CACCCGUGCAAAAAUGCAGGGGUCUAAAACUGAGCGGAUAACCUCUCUAUGG RNA 2: GGGAAUGGAUCCACAUCUACGAAUUCGUACCACAGAGAGGUUAUCCGCUCGCCGAGAUCGGAAGAGCACACGU",0.035 ± 0.005
24,"target 1 insU 3' of 13,insA 3' of 2 (mixed) RNA 1: CACCCGUGCAAAAAUGCAGGGGUCUAAAACUGAGCGGAUAACCUCUCUAUGG RNA 2: GGGAAUGGAUCCACAUCUACGAAUUCGUACCAUAGAGAGUGUUAUCCGCUCAACCGAGAUCGGAAGAGCACACGU",0.0162 ± 0.0018
25,target 1 A1C (mixed) RNA 1: CACCCGUGCAAAAAUGCAGGGGUCUAAAACUGAGCGGAUAACCUCUCUAUGG RNA 2: GGGAAUGGAUCCACAUCUACGAAUUCGUACCAUAGAGAGGUUAUCCGCUCCCCGAGAUCGGAAGAGCACACGU,0.024 ± 0.004
26,"target 1 insA 3' of 21,insG 3' of 6 (mixed) RNA 1: CACCCGUGCAAAAAUGCAGGGGUCUAAAACUGAGCGGAUAACCUCUCUAUGG RNA 2: GGGAAUGGAUCCACAUCUACGAAUUCGUACCAAUAGAGAGGUUAUCCGGCUCACCGAGAUCGGAAGAGCACACGU",0.0221 ± 0.0023
27,target 1 U19C (mixed) RNA 1: CACCCGUGCAAAAAUGCAGGGGUCUAAAACUGAGCGGAUAACCUCUCUAUGG RNA 2: GGGAAUGGAUCCACAUCUACGAAUUCGUACCACAGAGAGGUUAUCCGCUCACCGAGAUCGGAAGAGCACACGU,0.021 ± 0.0013
28,"target 1 G15U,C22A (mixed) RNA 1: CACCCGUGCAAAAAUGCAGGGGUCUAAAACUGAGCGGAUAACCUCUCUAUGG RNA 2: GGGAAUGGAUCCACAUCUACGAAUUCGUAACAUAGAUAGGUUAUCCGCUCACCGAGAUCGGAAGAGCACACGU",0.04 ± 0.006

# Source: publication PMC10786891, “Massively parallel profiling of RNA-targeting CRISPR-Cas13d”
